For assay [1], the target named is Cell-surface full length amyloid precursor protein (APP) on HEK293T cells transfected with wild type APP DNA (UniProt P05067). In words: FMAT ABI8200, HEK293T cells transfected with wild type APP, mock subtracted; Experiment 1.
For assay [2] the target is unchanged. Description: FMAT ABI8200, HEK293T cells transfected with wild type APP, mock subtracted; Experiment 2.

Chain of Cell-surface full length amyloid precursor protein (APP) on HEK293T cells transfected with wild type APP DNA (P05067 18-770): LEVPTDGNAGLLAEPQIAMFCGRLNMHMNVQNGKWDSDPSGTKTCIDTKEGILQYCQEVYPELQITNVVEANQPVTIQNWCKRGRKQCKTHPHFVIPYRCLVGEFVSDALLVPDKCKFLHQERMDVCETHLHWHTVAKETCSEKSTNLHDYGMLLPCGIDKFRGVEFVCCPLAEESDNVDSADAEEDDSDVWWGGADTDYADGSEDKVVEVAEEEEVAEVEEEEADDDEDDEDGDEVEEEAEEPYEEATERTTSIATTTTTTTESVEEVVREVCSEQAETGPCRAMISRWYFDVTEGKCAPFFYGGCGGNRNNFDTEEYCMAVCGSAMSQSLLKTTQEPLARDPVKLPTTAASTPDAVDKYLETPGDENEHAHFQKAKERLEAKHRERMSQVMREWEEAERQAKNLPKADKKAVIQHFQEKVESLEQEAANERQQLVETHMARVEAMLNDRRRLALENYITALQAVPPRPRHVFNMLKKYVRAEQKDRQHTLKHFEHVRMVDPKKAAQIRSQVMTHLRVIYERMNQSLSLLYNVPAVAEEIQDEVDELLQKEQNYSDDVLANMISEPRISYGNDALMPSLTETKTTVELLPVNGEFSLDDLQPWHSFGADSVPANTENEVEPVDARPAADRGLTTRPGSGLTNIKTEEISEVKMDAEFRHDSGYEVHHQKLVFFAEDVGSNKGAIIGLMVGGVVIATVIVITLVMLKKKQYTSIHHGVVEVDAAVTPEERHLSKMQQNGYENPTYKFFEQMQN

B1: Mouse monoclonal antibody 2E7 (antibody, mouse IgG2a, V domains shown)
VH: EVKLVESGGGLVQPGGSLKLSCAVSGFTFSDNGMAWVRQAPRKGPEWIAFISNLAYSIDYADTVTGRFTISRDNAKNTLYLEMSSLRSEDTAMYYCVSGTWFAYWGQGTLVTVSA
VL: DVVLTQTPLSLPVSLGDQASISCRVSQSLLHSNGYTYLHWYLQKPGQSPKLLIYKVSNRFSGVPDRFSGSGSGTDFTLKISRVEAEDLGVYFCSQTRHVPYTFGGGTKLEIK
On to B1, for which the % of LN27 binding amounted to 9.9% in assay [1] and 2.2% in assay [2].

For the origin of these results see patent US20110064740A1.
